Assay results: article PMC12720421, “Disordered N‐termini enhance the thermostability of SGNH‐hydrolase family polyesterases” (Protein Science : A Publication of the Protein Society, 2025)
Values joined by “and” are separate entries in the source; they are usually repeats but may differ in a detail not shown here. Equal values may be shown once. Blank lines part the entries; values can stand above or below the molecule they belong to.

Legend:
Pmt_EST = molecular target: T1, Pmt_EST (Zestomonas thermotolerans, UniProt Z9LQW2KWT1); test: pNP release at […] nm, specific activity; format: biochemical; details: 50 mM Tris pH 8.5, 5% methanol
T1 sequence (Z9LQW2KWT1 41-245): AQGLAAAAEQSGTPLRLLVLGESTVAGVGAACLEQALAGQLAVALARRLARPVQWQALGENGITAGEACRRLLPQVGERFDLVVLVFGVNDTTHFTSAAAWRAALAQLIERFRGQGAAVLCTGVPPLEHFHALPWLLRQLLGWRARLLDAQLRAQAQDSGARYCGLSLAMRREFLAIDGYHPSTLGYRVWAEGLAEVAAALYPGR

Ft_EST = molecular target: T2, Ft_EST (Fontimonas thermophila, UniProt A0A1I2JG86); test: pNP release at […] nm, specific activity; format: biochemical; details: 50 mM Tris pH 8.5, 5% methanol
T2 construct: gene SAMN04488120_10748
T2 sequence (A0A1I2JG86 25-217): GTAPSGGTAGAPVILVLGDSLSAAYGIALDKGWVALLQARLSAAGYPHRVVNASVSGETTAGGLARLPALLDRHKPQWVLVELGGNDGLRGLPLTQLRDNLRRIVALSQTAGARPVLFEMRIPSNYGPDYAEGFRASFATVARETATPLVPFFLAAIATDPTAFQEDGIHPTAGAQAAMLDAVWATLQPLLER

[1] = molecular target: PpEST from Pseudomonas oleovorans (Pseudomonas oleovorans); test: SEC; analytical SEC on a Superdex 200 Increase 10/300 GL column, with a BioRad Gel Filtration Standard; self-association of each purified esterase
[2] = molecular target: Rp_EST from Rhodothermus profundi (Rhodothermus profundi); test: as above
[3] = tested on: CCCC(=O)Oc1ccc([N+](=O)[O-])cc1; test: purified protein; format: biochemical, Maribacter thermophilus; details: 50 mM Tris pH 8.0, room temperature, 5% methanol, 0.05-0.1 μM enzyme
purified protein [4] = substrate: CCCC(=O)Oc1ccc([N+](=O)[O-])cc1; test: purified protein; format: biochemical, Chloracidobacterium thermophilum; details: 50 mM Tris pH 8.0, room temperature, 5% methanol, 0.05-0.1 μM enzyme
purified protein [5] = substrate: CCCC(=O)Oc1ccc([N+](=O)[O-])cc1; test: purified protein; format: biochemical, Altericroceibacterium indicum; details: 50 mM Tris pH 8.0, room temperature, 5% methanol, 0.05-0.1 μM enzyme
purified protein [6] = substrate: CCCC(=O)Oc1ccc([N+](=O)[O-])cc1; test: purified protein; format: biochemical, Rhodothermus profundi; details: 50 mM Tris pH 8.0, room temperature, 5% methanol, 0.05-0.1 μM enzyme
purified protein [7] = substrate: CCCC(=O)Oc1ccc([N+](=O)[O-])cc1; test: purified protein; format: biochemical, Ectopseudomonas oleovorans; details: 50 mM Tris pH 8.0, room temperature, 5% methanol, 0.05-0.1 μM enzyme

Molecule: CCCC(=O)Oc1ccc([N+](=O)[O-])cc1 [pNP-butyrate]
pNP release at 410 nm, specific activity (Pmt_EST): showed a clear preference for mid‐chain length esters, particularly pNP‐butyrate (C4)
pNP release at 410 nm, specific activity (Ft_EST): showed a clear preference for mid‐chain length esters, particularly pNP‐butyrate (C4)

stoichiometry N [1]: 2
Molecule: PpEST from Pseudomonas oleovorans (enzyme)

stoichiometry N [2]: 2 and 4
Molecule: Rp_EST from Rhodothermus profundi (enzyme)

Molecule: Mt_EST (Maribacter thermophilus)
Km [3]: 453 ± 81 µM
kcat [3]: 54.4 ± 4.4 s⁻¹
kcat/Km [3]: 120000 M⁻¹ s⁻¹

B1: shCt_EST (Chloracidobacterium thermophilum B) (protein)
chain: TARPRIVVLGDSLTAGFGLPREASYPTVLQKKLDAAGLNYQVINAGISGDTSAGGVERLDWSLDGDVRIVILALGANDGLRGLPLTQMEANLRTIIERARARGAQVILAGLKAPAEAGPDYGAQFEAVYRKLAQQYRLPLIPSLLEGVAGREELNQEDGIHPNARGAAIVADNVWKVLEPVARQQLAQSQSNPDAPPAAKPAGAR
notes: N-terminal extension truncated to align with AlinE4 and PpEST (borders not in main text), C-terminal 6xHis tag, E. coli, monomer
Km (purified protein [4]): 646 ± 139 µM
kcat (purified protein [4]): 33.3 ± 3.7 s⁻¹
kcat/Km (purified protein [4]): 52000 M⁻¹ s⁻¹

B2: AlinE4 (Altericroceibacterium indicum) (protein)
chain: SMGESRVILAFGDSLFAGYGLDKGESYPAKLETALRSHGINARIINAGVSGDTTAAGLQRIKFVLDSQPDKPELAIVELGGNDLLRGLSPAEARQNLSGILEELQRRKIPILLMGMRAPPNLGAKYQREFDGIYPYLAEKYDAKLVPFFLEAVADRPDLIQKDHVHPTARGVEELVSATSNAVAKALPAKK
Km (purified protein [5]): 194 ± 55 µM
kcat (purified protein [5]): 15 ± 1.4 s⁻¹
kcat/Km (purified protein [5]): 77000 M⁻¹ s⁻¹

B3: Rp_EST (Rhodothermus profundi) (protein)
chain: QDTSKSSASSSEGSPDTTAKTPTHAARAAQPITVLVLGNSLAAGYGLSPDEAFPAILQRKVDSLGWPVRILNAGLSGETSAGGLRRIDWLLRERIDVLILELGANDGLRGIDPEVTRQNLQGIIDKVRARYPEADIILAGMQLPPNLGPAYTAAFRALYPELARANNAYLIPFLLEGVGGVPELNQADGIHPTAEGQRIVAENVWRVLRPVLERRLGLA
Km (purified protein [6]): 246 ± 72 µM
kcat (purified protein [6]): 12 ± 1.3 s⁻¹
kcat/Km (purified protein [6]): 49000 M⁻¹ s⁻¹

B4: shRp_EST (Rhodothermus profundi) (protein)
chain: ITVLVLGNSLAAGYGLSPDEAFPAILQRKVDSLGWPVRILNAGLSGETSAGGLRRIDWLLRERIDVLILELGANDGLRGIDPEVTRQNLQGIIDKVRARYPEADIILAGMQLPPNLGPAYTAAFRALYPELARANNAYLIPFLLEGVGGVPELNQADGIHPTAEGQRIVAENVWRVLRPVLERRLGLA
notes: as for B1
Km (purified protein [6]): 257 ± 43 µM
kcat (purified protein [6]): 25 ± 1.6 s⁻¹
kcat/Km (purified protein [6]): 97000 M⁻¹ s⁻¹

B5: Ct_EST (Chloracidobacterium thermophilum B) (protein)
chain: GGCSRTGTEAPENLPVLAPAPTDAAPTARPRIVVLGDSLTAGFGLPREASYPTVLQKKLDAAGLNYQVINAGISGDTSAGGVERLDWSLDGDVRIVILALGANDGLRGLPLTQMEANLRTIIERARARGAQVILAGLKAPAEAGPDYGAQFEAVYRKLAQQYRLPLIPSLLEGVAGREELNQEDGIHPNARGAAIVADNVWKVLEPVARQQLAQSQSNPDAPPAAKPAGAR
Km (purified protein [4]): 791 ± 178 µM
kcat (purified protein [4]): 38.5 ± 4.8 s⁻¹
kcat/Km (purified protein [4]): 49000 M⁻¹ s⁻¹

B6: PpEST (Ectopseudomonas oleovorans CECT 5344) (protein)
chain: GTLLVVGDSISAAFGLDSRQGWVALLEKRLSEEGFEHSVVNASISGDTSAGGAARLSALLAEHKPELVIIELGGNDGLRGQPPAQLQQNLASMVEQSQQAGAKVLLLGMKLPPNYGVRYTTAFAQVFTDLAEQKQVSLVPFFLEGVGGVPGMMQADGIHPAEAAQEILLDNVWPTLKPML
Km (purified protein [7]): 242 ± 49 µM
kcat (purified protein [7]): 14 ± 1 s⁻¹
kcat/Km (purified protein [7]): 58000 M⁻¹ s⁻¹
